{"source": "patent US20200239585A1", "about": "“MODULATING THE IMMUNE RESPONSE USING ANTIBODY-DRUG CONJUGATES” (Seattle Genetics, Inc., priority 2017, published 2020)", "molecules": {"B1": {"name": "brentuximab vedotin (conjugate)", "VH": "QIQLQQSGPEVVKPGASVKISCKASGYTFTDYYITWVKQKPGQGLEWIGWIYPGSGNTKYNEKFKGKATLTVDTSSSTAFMQLSSLTSEDTAVYFCANYGNYWFAYWGQGTQVTVSA", "VL": "DIVLTQSPASLAVSLGQRATISCKASQSVDFDGDSYMNWYQQKPGQPPKVLIYAASNLESGIPARFSGSGSGTDFTLNIHPVEEEDAATYYCQQSNEDPWTFGGGTKLEIK"}}, "key": {"[1]": {"test_system": "efflux pump activity of T cell subsets", "experiment": "rhodamine 123 efflux assay", "assay_type": "cell-based, human", "conditions": "37° C., 5-hour time-course; FIG. 9D", "protocol": "Sensitivity of cells to many chemotherapies, including MMAE, is influenced by cell-intrinsic drug efflux activity. T cell subsets were evaluated for relative efflux pump activity using a rhodamine 123 efflux assay, following manufacturer's protocol (Chemicon International, Multidrug Resistance Direct Dye Efflux Assay). Enriched T cell populations were loaded with rhodamine 123, incubated in a 37° C. water bath, and were measured for loss of fluorescence over a 5-hour time-course by flow cytometry."}, "CD30+ cell lines": {"test_system": "CD30+ cell lines", "conditions": "cited from earlier work"}, "[2]": {"test_system": "Hodgkin disease xenograft", "conditions": "SCID mouse xenograft models of Hodgkin disease; cited from earlier work"}, "[3]": {"test_system": "inducible T regulatory cells (iTregs)", "experiment": "iTreg viability on in vitro proliferation with a titration of BV or control IgG-MMAE", "assay_type": "cell-based, human", "conditions": "CD3/CD28 beads, 4-5 days", "protocol": "CD4^+ T cells, isolated from healthy donor PBMC (Astarte Biologics, Bothell Wash.) were used to generate inducible T regulatory cells (iTregs). iTreg differentiation was performed over 1-2 weeks in 6-well tissue culture plates at 37° C. Cells were incubated with CD3/CD28 MACS iBead particles (Miltenyi biotec) at a 1:32 bead/cell ratio, in 2-3 ml of X-VIVO 15 media (Lonza) containing 1L-2 (50 ng/ml), TGFβ (50 ng/ml), and a 1:100 dilution of Lipid-Mixture 1 (Sigma-Aldrich). iTregs were evaluated for FoxP3 and CD30 expression by FACS analysis on an Attune NXT flow cytometer (Life Technologies). Following differentiation, individual donor iTreg populations ranged between 20-80% FoxP3^+ and 40-70% CD30^+.\nTo evaluate the effect of brentuximab vedotin (BV), and anti-CD30 antibody drug-conjugate on iTreg viability, cells were driven to proliferate in vitro in the presence of BV or control antibody drug-conjugate (IgG-MMAE). Briefly, iTregs were mixed with CD3/CD28 beads (8:1) in RPMI 10% FCS and were distributed at approximately 2.0×10^4 cells/well into a 96-well round-bottom plate. A titration of BV or control IgG-MMAE was added to replicate wells at the concentrations listed, for a final volume of 200 μl, and plates were incubated at 37° C. for 4-5 days. […]"}, "iTregs and CD8+ T cells": {"test_system": "iTregs and CD8+ T cells", "experiment": "iTreg / CD8+ T cell co-culture suppression assay", "assay_type": "cell-based, human", "conditions": "iTregs:CD8+ T cells 1:2, CD3/CD28 beads, four days, increasing concentrations, two donors; FIG. 2C, 2D", "protocol": "As shown in FIG. 2A and FIG. 2B, increasing the iTreg/CD8^+ T cell ratio, for each donor, further abrogated T cell expansion, confirming suppressive function. To evaluate the effect of BV on iTreg suppression in vitro, co-culture suppression assays were performed. iTregs and CD8^+ T cells were mixed at a 1:2 ratio and combined with CD3/CD28 beads. Replicate wells were treated with a titration of BV or control IgG-MMAE. After four days of culture, viable iTregs and CD8^+ T cells were quantified by flow cytometry."}, "[4]": {"test_system": "CD25hi CD127lo T regulatory cells", "experiment": "activated peripheral blood Treg depletion in vitro", "assay_type": "cell-based, human", "conditions": "four separate donors, CD3/CD28 beads+IL-2, 4-5 days; FIG. 3A", "protocol": "(§1) CD25^hi CD127^lo T regulatory cells or CD8^+ T cells, enriched from peripheral blood derived leukoreduction system (LRS) chambers, were plated with CD3/CD28 beads+IL-2 in round-bottom 96-well tissue culture plates for 4-5 days with a titration of BV or control IgG-MMAE. On the final day of the assay, cells were stained as described above (viability dye and αCD30-PE antibody) and evaluated by flow cytometry."}, "CD8+ T cells": {"test_system": "CD8+ T cells", "experiment": "activated peripheral blood CD8+ T cell depletion in vitro", "assay_type": "cell-based, human", "conditions": "up to 10 μg/ml of BV, CD3/CD28 beads+IL-2, 4-5 days; FIG. 3B", "protocol": "as §1"}, "[5]": {"test_system": "human T regulatory cells and CD8+ T cells", "experiment": "xeno-GVHD model, human T cell subtypes in spleen", "assay_type": "in vivo, NSG mice"}, "[6]": {"test_system": "peripheral blood T cell subsets", "experiment": "immunophenotyping of peripheral blood in classical Hodgkin lymphoma patients after BV", "assay_type": "in vivo, human", "source_text": "The effects of BV on circulating immune cells has not previously been fully elucidated. Sixty-two patients adult patients with classical Hodgkin lymphoma (cHL) that had relapsed or was refractory to frontline chemotherapy were enrolled in a study to evaluate treatment with BV. Patients were excluded if they previously received prior salvage therapy, including salvage radiotherapy, for refractory cHL; BV or any immuno-oncology therapy affecting the PD-1, CTLA4, or CD137 pathways; and/or allogeneic or autologous stem cell transplant (ASCT). BV was administered to the patients at a dose of 1.8 mg/kg on Day 1 and the patients were assessed on Day 8. Immunophenotyping of peripheral blood by flow cytometry was performed by Q2 Solutions on heparinized whole blood. Cell pellets, resulting from plasma banking, were sent to Adaptive for T Cell Receptor β (TCRβ) sequencing. Peripheral blood mononuclear cells were isolated from CPT tubes, frozen, and then analyzed in batches by Caprion using their intracellular cytokine staining platform following peptide stimulation."}}}
{"molecule": "rhodamine 123 [rhodamine-123]", "values": [{"measurement": "clearance of intracellular rhodamine-123 in CD8+ T cells", "setting": "[1]", "value": "rapid clearance"}, {"measurement": "rhodamine-123 efflux in T regulatory cells among T cell subsets", "setting": "[1]", "value": "slowest"}]}
{"molecule": "cAC10: chimeric IgG1 monoclonal antibody that specifically binds CD30", "values": [{"measurement": "growth of CD30+ cell lines in vitro", "setting": "CD30+ cell lines", "value": "induces growth arrest"}, {"measurement": "antitumor activity", "setting": "[2]", "value": "pronounced antitumor activity"}]}
{"molecule": "B1", "values": [{"measurement": "numbers of CD30+ iTregs", "setting": "[3]; FIG. 1B", "value": "enhanced depletion"}, {"measurement": "total viable iTreg numbers", "setting": "[3]; five separate donors, FIG. 1A", "value": "dose-dependent reduction"}, {"measurement": "CD8+ T cell accumulation in co-culture", "setting": "iTregs and CD8+ T cells", "value": "augmented"}, {"measurement": "viable iTregs in co-culture", "setting": "iTregs and CD8+ T cells", "value": "selectively reduced"}, {"measurement": "viable CD30+ Treg numbers", "setting": "[4]", "value": "dose-dependent reduction"}, {"measurement": "depletion of CD30+ CD8+ T cells", "setting": "CD8+ T cells", "value": "did not deplete"}, {"measurement": "human T regulatory cells in the spleen", "setting": "[5]; single i.p. 3 mg/kg on day 5, spleens on day 12, compared to PBS alone, FIG. 4A", "value": "significantly reduced"}, {"measurement": "splenic CD8+ T cells", "setting": "[5]; single i.p. 3 mg/kg on day 5, spleens on day 12, FIG. 4B", "value": "unaffected by BV treatment with a trend toward increased numbers"}, {"measurement": "CD8+ T cell/Treg ratio in vivo", "setting": "[5]; single i.p. 3 mg/kg on day 5, spleens on day 12, FIG. 4C", "value": "increased"}, {"measurement": "reduction of CD30+ regulatory T cells compared to reduction of other CD30+ T helper cells", "setting": "[6]; 1.8 mg/kg on Day 1, assessed on Day 8", "value": "more significantly"}, {"measurement": "T helper cell subset populations including regulatory T cells", "setting": "[6]; 1.8 mg/kg on Day 1, assessed on Day 8, peripheral blood, FIG. 5", "value": "reduction"}, {"measurement": "number of CD30-expressing regulatory T cells in the peripheral blood", "setting": "[6]; 1.8 mg/kg on Day 1, assessed on Day 8, FIG. 7", "value": "significantly reduced"}, {"measurement": "number of CD30+ T regulatory cells as compared to CD30− T regulatory cells", "setting": "[6]; single treatment, versus baseline, FIG. 7", "value": "reduced"}]}
